B1: PDC6: 2-keto-acid decarboxylase Pdc6 from S. cerevisiae (protein, listed as Saccharomyces cerevisiae)
chain: MSEITLGKYLFERLKQVNVNTIFGLPGDFNLSLLDKIYEVDGLRWAGNANELNAAYAADGYARIKGLSVLVTTFGVGELSALNGIAGSYAEHVGVLHVVGVPSISAQAKQLLLHHTLGNGDFTVFHRMSANISETTSMITDIATAPSEIDRLIRTTFITQRPSYLGLPANLVDLKVPGSLLEKPIDLSLKPNDPEAEKEVIDTVLELIQNSKNPVILSDACASRHNVKKETQKLIDLTQFPAFVTPLGKGSIDEQHPRYGGVYVGTLSKQDVKQAVESADLILSVGALLSDFNTGSFSYSYKTKNVVEFHSDYVKVKNATFLGVQMKFALQNLLKVIPDVVKGYKSVPVPTKTPANKGVPASTPLKQEWLWNELSKFLQEGDVIISETGTSAFGINQTIFPKDAYGISQVLWGSIGFTTGATLGAAFAAEEIDPNKRVILFIGDGSLQLTVQEISTMIRWGLKPYLFVLNNDGYTIEKLIHGPHAEYNEIQTWDHLALLPAFGAKKYENHKIATTGEWDALTTDSEFQKNSVIRLIELKLPVFDAPESLIKQAQLTAATNAKQ
modifications: CDS (1)..(1692)
notes: 2-keto-acid decarboxylase Pdc6 from S. cerevisiae
B2: Kivd: 2-keto-acid decarboxylase Kivd from Lactococcus lactis (protein, listed as Lactococcus lactis)
chain: MYTVGDYLLDRLHELGIEEIFGVPGDYNLQFLDQIISRKDMKWVGNANELNASYMADGYARTKKAAAFLTTFGVGELSAVNGLAGSYAENLPVVEIVGSPTSKVQNEGKFVHHTLADGDFKHFMKMHEPVTAARTLLTAENATVEIDRVLSALLKERKPVYINLPVDVAAAKAEKPSLPLKKENSTSNTSDQEILNKIQESLKNAKKPIVITGHEIISFGLEKTVSQFISKTKLPITTLNFGKSSVDEALPSFLGIYNGKLSEPNLKEFVESADFILMLGVKLTDSSTGAFTHHLNENKMISLNIDEGKIFNESIQNFDFESLISSLLDLSEIEYKGKYIDKKQEDFVPSNALLSQDRLWQAVENLTQSNETIVAEQGTSFFGASSIFLKPKSHFIGQPLWGSIGYTFPAALGSQIADKESRHLLFIGDGSLQLTVQELGLAIREKINPICFIINNDGYTVEREIHGPNQSYNDIPMWNYSKLPESFGATEERVVSKIVRTENEFVSVMKEAQADPNRMYWIELILAKEDAPKVLKKMGKLFAEQNKS
B3: ARO10: 2-keto-acid decarboxylase Aro10 from S. cerevisiae (protein, listed as Saccharomyces cerevisiae)
chain: MAPVTIEKFVNQEERHLVSNRSATIPFGEYIFKRLLSIDTKSVFGVPGDFNLSLLEYLYSPSVESAGLRWVGTCNELNAAYAADGYSRYSNKIGCLITTYGVGELSALNGIAGSFAENVKVLHIVGVAKSIDSRSSNFSDRNLHHLVPQLHDSNFKGPNHKVYHDMVKDRVACSVAYLEDIETACDQVDNVIRDIYKYSKPGYIFVPADFADMSVTCDNLVNVPRISQQDCIVYPSENQLSDIINKITSWIYSSKTPAILGDVLTDRYGVSNFLNKLICKTGIWNFSTVMGKSVIDESNPTYMGQYNGKEGLKQVYEHFELCDLVLHFGVDINEINNGHYTFTYKPNAKIIQFHPNYIRLVDTRQGNEQMFKGINFAPILKELYKRIDVSKLSLQYDSNVTQYTNETMRLEDPTNGQSSIITQVHLQKTMPKFLNPGDVVVCETGSFQFSVRDFAFPSQLKYISQGFFLSIGMALPAALGVGIAMQDHSNAHINGGNVKEDYKPRLILFEGDGAAQMTIQELSTILKCNIPLEVIIWNNNGYTIERAIMGPTRSYNDVMSWKWTKLFEAFGDFDGKYTNSTLIQCPSKLALKLEELKNSNKRSGIELLEVKLGELDFPEQLKCMVEAAALKRNKK
modifications: CDS (1)..(1908)
notes: 2-keto-acid decarboxylase Aro10 from S. cerevisiae

Tests used:
[1] = system: E. coli culture expressing kivd; experiment: Alcohol productions with the supply of 2-keto acids; assay type: cell-based; conditions: 2-keto acid added to E. coli culture expressing kivd
Excerpt: The addition of various 2-keto acids (see Table 13) to the E. coli culture expressing kivd confirmed the specific production of the corresponding alcohols by 2- to 23-fold.

[2] = system: endogenous 2-keto acids in E. coli; experiment: Alcohol productions with KDC and ADH in E. coli; assay type: cell-based; conditions: KDC over-produced with Adh2 in E. coli; minimal media with 0.2 M glucose
Excerpt: An enzyme in this alcohol production strategy is KDC, which is common in plants, yeasts and fungi but less so in bacteria. The aldehydes produced can then be converted to alcohols by an Adh, which is commonly found in many organisms. Some of the KDCs have broad-substrate ranges, while others are more specific. To test the capability of the endogenous 2-keto acids as a substrate for KDC in E. coli, five KDCs including Pdc6, Aro10, Thi3, from S. cerevisiae, Kivd from Lactococcus lactis, and Pdc from C. acetobutylycum were over-produced with alcohol dehydrogenase 2 (Adh2) of S. cerevisiae. E. coli cultures expressing these foreign genes were grown in a minimal media with 0.2 M glucose.

| Molecule | Product 2-phenylethanol [1] | Product 3-methyl-1-butanol [1] | Product 1-propanol [2] | Product 2-methyl-1-butanol [2] | Product 3-methyl-1-butanol [2] | Product isobutanol [2] | other results |
| --- | --- | --- | --- | --- | --- | --- | --- |
| CCC(C)C(=O)C(=O)O (stereo not shown) [2-keto-3-methyl-valerate] | – | – | – | – | – | – | Product 2-methyl-1-butanol [1]: 5284 µM |
| CC(C)C(=O)C(=O)O [2-keto-isovalerate] | 109 µM | – | – | – | – | – | Product isobutanol [1]: 10016 µM |
| CC(C)CC(=O)C(=O)O [2-keto-4-methyl-pentanoate] | – | 3756 µM | – | – | – | – | – |
| O=C(O)C(=O)Cc1ccccc1 [phenylpyruvate] | 7269 µM | 105 µM | – | – | – | – | Product 1-butanol [1]: 23 µM; Product 1-propanol [1]: 8 µM; Product isobutanol [1]: 64 µM |
| CCCC(=O)C(=O)O [2-ketovalerate] | 66 µM | 52 µM | – | – | – | – | Product 1-butanol [1]: 3926 µM |
| B1 | – | – | 125 µM | 56 µM | 92 µM | 260 µM | – |
| B2 | – | – | 520 µM | 766 µM | 1495 µM | 5242 µM | Product 1-butanol [2]: 220 µM; Product 2-phenylethanol [2]: 324 µM |
| B3 | – | – | 290 µM | 652 µM | 1099 µM | 2094 µM | Product 1-butanol [2]: 95 µM; Product 2-phenylethanol [2]: 469 µM |

— patent US9695426B2, “Biofuel production by recombinant microorganisms” (The Regents of the University of California, priority 2007, dated 2017)
